Data set [1] addresses T1, 6HisPrpR (PrpRMt) (Mycobacterium tuberculosis H37Rv) (UniProt O06581).
T1 sequence: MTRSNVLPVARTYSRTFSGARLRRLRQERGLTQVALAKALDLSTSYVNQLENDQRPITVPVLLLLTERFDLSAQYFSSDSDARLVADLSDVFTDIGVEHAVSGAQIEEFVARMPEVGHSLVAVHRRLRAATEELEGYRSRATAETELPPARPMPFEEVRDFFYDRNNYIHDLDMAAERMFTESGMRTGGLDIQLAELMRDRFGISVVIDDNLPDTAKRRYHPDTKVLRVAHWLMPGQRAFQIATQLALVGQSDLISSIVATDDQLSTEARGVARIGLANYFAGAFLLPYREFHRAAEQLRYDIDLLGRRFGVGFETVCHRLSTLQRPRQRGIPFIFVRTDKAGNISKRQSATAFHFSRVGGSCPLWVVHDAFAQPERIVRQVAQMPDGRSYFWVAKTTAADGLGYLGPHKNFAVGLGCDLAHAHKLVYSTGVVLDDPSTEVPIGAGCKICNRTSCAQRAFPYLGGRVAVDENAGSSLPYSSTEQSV
Briefly: EMSA. Particulars: 50 mM Tris-HCl pH 7.5, 50 mM KCl, 10 mM MgCl2, 10% glycerol, 0.5 mM EDTA; […], SA chip). A general note: Mobility shift assays separate free from complexed probe on a gel.

Data set [2] has as its target T1, 6HisPrpR (PrpRMt) (Mycobacterium tuberculosis H37Rv). In words: SPR. Particulars: 50 mM Tris-HCl pH 7.5, 50 mM KCl, 10 mM MgCl2, 10% glycerol, 0.5 mM EDTA; […], SA chip).
Data set [3] addresses T2, 6HisRamB (UniProt P9WMI1).
T2 sequence: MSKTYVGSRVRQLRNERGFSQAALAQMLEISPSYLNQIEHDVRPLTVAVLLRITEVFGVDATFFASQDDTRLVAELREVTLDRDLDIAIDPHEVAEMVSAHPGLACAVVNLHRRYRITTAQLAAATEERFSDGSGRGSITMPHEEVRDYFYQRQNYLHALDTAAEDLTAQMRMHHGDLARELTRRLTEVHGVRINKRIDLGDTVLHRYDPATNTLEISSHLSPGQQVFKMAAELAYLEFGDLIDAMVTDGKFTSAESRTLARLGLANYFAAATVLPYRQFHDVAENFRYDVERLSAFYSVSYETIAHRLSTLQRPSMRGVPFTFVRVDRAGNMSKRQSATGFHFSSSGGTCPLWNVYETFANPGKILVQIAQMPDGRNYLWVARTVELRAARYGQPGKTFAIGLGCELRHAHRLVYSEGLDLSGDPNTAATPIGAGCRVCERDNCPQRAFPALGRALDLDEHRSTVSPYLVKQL
Briefly: SPR. The settings on record: 50 mM Tris-HCl pH 7.5, 50 mM KCl, 10 mM MgCl2, 10% glycerol, 0.5 mM EDTA; […], SA chip).

Data set [4] relates to 6HisPrpR (PrpRMt) (Mycobacterium tuberculosis H37Rv). In words: SPR. The settings on record: 50 mM Tris-HCl pH 7.5, 50 mM KCl, 10 mM MgCl2, 10% glycerol, 0.5 mM EDTA; 25 C, 30 min (EMSA, footprinting); same buffer for SPR (BIAcore T3000, SA chip).
The test system of data set [5] is 6HisRamB. Briefly: SPR. The settings on record: 50 mM Tris-HCl pH 7.5, 50 mM KCl, 10 mM MgCl2, 10% glycerol, 0.5 mM EDTA; […], SA chip).

As a reminder, the Kd is the equilibrium constant for the complex coming apart. A high value points to lower affinity. As for “GGCGGTCGAACACGTCGGGGTGACCGTCGGGCACGGGCATCAATTTTTTGTCGAGGCTCACGGCGTTCTCCCCATTTCCTCCTCGCGTGTACCTCAGGCTCACCCTTGAGTCCCGGTGCGAATCATGCCAACGCCGTGGCGGAAACACCAATCGCAGCACGCTTGCTAACTCTGCGAATGGCGTCTTCACAACACCCGGTACGCTCGGTTGGGTGTCCAAGACCTACGTCGGCTCGCGGGTCCGCCAACTGCCC (double strand) [pramB]”, the binding result in data set [1] is recorded as “binds”. Also, the Kd was determined as 32 nM in data set [2] and 328 nM in data set [3].

Turning to “GGGTGCCTCCGATCCGAGCTCGGACTCGGCAAGTACCGCCACTTTCATGACCGCGCGAGGTGGTGCGTCGGGAGCGCTACTGGTGTTCGTGTTCGCTGACGACATGTAGCGGGCAGCTCCTCTTCCGGGCGGTTCGTTTGCAAACGATACGCATGCTGTGTGTAGATTTCCCACCTCCCGACAGCCGAGACGACGACATGTGCTGGAGTTATTGCCTTCGACTTGACGGTTGATCGTTAGCACC (double strand) [pkstR]”, the binding entry in data set [1] is on record as “binds”. Also, in data set [2], the Kd came to 25 nM.

With “GGTGCTCCGCGCTCTTCGGGGTGCCGACGACAGACATAGACAACTCCTTAACGGTCTTTCATTGCCGAAAACGCTGACGCCCTACCGTCGTCCAGGCGGTGTCAACGGCGCAGCTTCACTGGTGTGCTAACTCGACCATGGCACAGCGTGTCAACGCTGGTCCACCCATTTCACTTGCGAATTTCGGCAACGGCCTGCGGACTTTTTGCAAATTTTGCGAAGTCGCCCAAAAACTGAACCGTTTCAGAAGCTACCCGCCAGTAACGACAAATCCGCAGGTAAACCCCC (double strand) [picl1]”, the binding result in data set [1] is “binds”. As to pkstR, the dissociation constant (Kd) in data set [4] came to 25 nM.

For pramB, the Kd in data set [5] is 328 nM; in data set [4], 32 nM.

The record behind these values is publication PMC3420887.
